B1: 2M8U (parent)
chain: TKAQVIEAFKVFDRDGNGYVTVDYLRKVLNELGDMMPADEIEEMIYEADPQNSGYVQYETFVGMLFL

Variants of: B1
Assay: folding stability dG (cDNA display proteolysis); higher = more stable
Conditions: PBS, room temperature

Q: For TKAQVIEAFKMFDRDGNGYVTVDYLRKVLNELGDMMPADEIEEMIYEADPQNSGYVQYETFVGMLFL, which “folding stability dG” value is on record?
A: Its value is 3.24 kcal/mol.

Q: For TKAQVIEAFKCFDRDGNGYVTVDYLRKVLNELGDMMPADEIEEMIYEADPQNSGYVQYETFVGMLFL, which “folding stability dG” value is on record?
A: The value was 3.39 kcal/mol.

Q: With TKAQVIEAFKTFDRDGNGYVTVDYLRKVLNELGDMMPADEIEEMIYEADPQNSGYVQYETFVGMLFL as the variant, how does the “folding stability dG” value read?
A: The value was 3.35 kcal/mol.

Q: With TKAQVIEAFKIFDRDGNGYVTVDYLRKVLNELGDMMPADEIEEMIYEADPQNSGYVQYETFVGMLFL as the variant, how does the “folding stability dG” value read?
A: Its value is 3.38 kcal/mol.

Q: With TKAQVIEAFKLFDRDGNGYVTVDYLRKVLNELGDMMPADEIEEMIYEADPQNSGYVQYETFVGMLFL as the variant, how does the “folding stability dG” value read?
A: Its value is 3.44 kcal/mol.

Q: With TKAQVIEAFKQFDRDGNGYVTVDYLRKVLNELGDMMPADEIEEMIYEADPQNSGYVQYETFVGMLFL as the variant, how does the “folding stability dG” value read?
A: The value was 3.65 kcal/mol.

Q: With TKAQVIEAFKSFDRDGNGYVTVDYLRKVLNELGDMMPADEIEEMIYEADPQNSGYVQYETFVGMLFL as the variant, how does the “folding stability dG” value read?
A: Its value is 3.56 kcal/mol.

Q: For TKAQVIEAFKFFDRDGNGYVTVDYLRKVLNELGDMMPADEIEEMIYEADPQNSGYVQYETFVGMLFL, which “folding stability dG” value is on record?
A: The value was 3.01 kcal/mol.

Q: Which “folding stability dG” value does the source give for TKAQVIEAFKGFDRDGNGYVTVDYLRKVLNELGDMMPADEIEEMIYEADPQNSGYVQYETFVGMLFL here?
A: The value was 3.28 kcal/mol.

Q: With TKAQVIEAFKAFDRDGNGYVTVDYLRKVLNELGDMMPADEIEEMIYEADPQNSGYVQYETFVGMLFL as the variant, how does the “folding stability dG” value read?
A: The value was 3.77 kcal/mol.

Q: With TKAQVIEAFKWFDRDGNGYVTVDYLRKVLNELGDMMPADEIEEMIYEADPQNSGYVQYETFVGMLFL as the variant, how does the “folding stability dG” value read?
A: Its value is 3.05 kcal/mol.

Q: With TKAQVIEAFKEFDRDGNGYVTVDYLRKVLNELGDMMPADEIEEMIYEADPQNSGYVQYETFVGMLFL as the variant, how does the “folding stability dG” value read?
A: The value was 3.52 kcal/mol.

Q: With TKAQVIEAFKKFDRDGNGYVTVDYLRKVLNELGDMMPADEIEEMIYEADPQNSGYVQYETFVGMLFL as the variant, how does the “folding stability dG” value read?
A: Its value is 3.72 kcal/mol.

Q: With TKAQVIEAFKHFDRDGNGYVTVDYLRKVLNELGDMMPADEIEEMIYEADPQNSGYVQYETFVGMLFL as the variant, how does the “folding stability dG” value read?
A: Its value is 3.32 kcal/mol.

Q: Which “folding stability dG” value does the source give for TKAQVIEAFKRFDRDGNGYVTVDYLRKVLNELGDMMPADEIEEMIYEADPQNSGYVQYETFVGMLFL here?
A: Its value is 3.63 kcal/mol.

Q: With TKAQVIEAFKDFDRDGNGYVTVDYLRKVLNELGDMMPADEIEEMIYEADPQNSGYVQYETFVGMLFL as the variant, how does the “folding stability dG” value read?
A: Its value is 3.13 kcal/mol.

Q: For TKAQVIEAFKYFDRDGNGYVTVDYLRKVLNELGDMMPADEIEEMIYEADPQNSGYVQYETFVGMLFL, which “folding stability dG” value is on record?
A: The value was 3.07 kcal/mol.

Q: For TKAQVIEAFKPFDRDGNGYVTVDYLRKVLNELGDMMPADEIEEMIYEADPQNSGYVQYETFVGMLFL, which “folding stability dG” value is on record?
A: The value was 3.14 kcal/mol.

Q: Which “folding stability dG” value does the source give for TKAQVIEAFKNFDRDGNGYVTVDYLRKVLNELGDMMPADEIEEMIYEADPQNSGYVQYETFVGMLFL here?
A: Its value is 3.51 kcal/mol.

Q: For TKAQVIEAFQVFDRDGNGYVTVDYLRKVLNELGDMMPADEIEEMIYEADPQNSGYVQYETFVGMLFL, which “folding stability dG” value is on record?
A: Its value is 3.16 kcal/mol.

Q: With TKAQVIEAFHVFDRDGNGYVTVDYLRKVLNELGDMMPADEIEEMIYEADPQNSGYVQYETFVGMLFL as the variant, how does the “folding stability dG” value read?
A: The value was 2.88 kcal/mol.

Q: For TKAQVIEAFVVFDRDGNGYVTVDYLRKVLNELGDMMPADEIEEMIYEADPQNSGYVQYETFVGMLFL, which “folding stability dG” value is on record?
A: The value was 3.17 kcal/mol.

Q: Which “folding stability dG” value does the source give for TKAQVIEAFTVFDRDGNGYVTVDYLRKVLNELGDMMPADEIEEMIYEADPQNSGYVQYETFVGMLFL here?
A: The value was 2.77 kcal/mol.

Q: For TKAQVIEAFIVFDRDGNGYVTVDYLRKVLNELGDMMPADEIEEMIYEADPQNSGYVQYETFVGMLFL, which “folding stability dG” value is on record?
A: Its value is 3.32 kcal/mol.

Q: For TKAQVIEAFYVFDRDGNGYVTVDYLRKVLNELGDMMPADEIEEMIYEADPQNSGYVQYETFVGMLFL, which “folding stability dG” value is on record?
A: The value was 2.79 kcal/mol.

Q: With TKAQVIEAFRVFDRDGNGYVTVDYLRKVLNELGDMMPADEIEEMIYEADPQNSGYVQYETFVGMLFL as the variant, how does the “folding stability dG” value read?
A: The value was 3.46 kcal/mol.

Q: With TKAQVIEAFGVFDRDGNGYVTVDYLRKVLNELGDMMPADEIEEMIYEADPQNSGYVQYETFVGMLFL as the variant, how does the “folding stability dG” value read?
A: The value was 2.97 kcal/mol.

Q: Which “folding stability dG” value does the source give for TKAQVIEAFEVFDRDGNGYVTVDYLRKVLNELGDMMPADEIEEMIYEADPQNSGYVQYETFVGMLFL here?
A: The value was 3.02 kcal/mol.

Q: Which “folding stability dG” value does the source give for TKAQVIEAFFVFDRDGNGYVTVDYLRKVLNELGDMMPADEIEEMIYEADPQNSGYVQYETFVGMLFL here?
A: Its value is 3.21 kcal/mol.

Q: With TKAQVIEAFMVFDRDGNGYVTVDYLRKVLNELGDMMPADEIEEMIYEADPQNSGYVQYETFVGMLFL as the variant, how does the “folding stability dG” value read?
A: The value was 3.15 kcal/mol.

Q: With TKAQVIEAFLVFDRDGNGYVTVDYLRKVLNELGDMMPADEIEEMIYEADPQNSGYVQYETFVGMLFL as the variant, how does the “folding stability dG” value read?
A: Its value is 3.25 kcal/mol.

Q: Which “folding stability dG” value does the source give for TKAQVIEAFCVFDRDGNGYVTVDYLRKVLNELGDMMPADEIEEMIYEADPQNSGYVQYETFVGMLFL here?
A: Its value is 3.51 kcal/mol.

Q: For TKAQVIEAFDVFDRDGNGYVTVDYLRKVLNELGDMMPADEIEEMIYEADPQNSGYVQYETFVGMLFL, which “folding stability dG” value is on record?
A: The value was 2.26 kcal/mol.

Q: For TKAQVIEAFSVFDRDGNGYVTVDYLRKVLNELGDMMPADEIEEMIYEADPQNSGYVQYETFVGMLFL, which “folding stability dG” value is on record?
A: The value was 2.86 kcal/mol.

Q: With TKAQVIEAFPVFDRDGNGYVTVDYLRKVLNELGDMMPADEIEEMIYEADPQNSGYVQYETFVGMLFL as the variant, how does the “folding stability dG” value read?
A: Its value is 2.08 kcal/mol.

Q: Which “folding stability dG” value does the source give for TKAQVIEAFWVFDRDGNGYVTVDYLRKVLNELGDMMPADEIEEMIYEADPQNSGYVQYETFVGMLFL here?
A: The value was 3.01 kcal/mol.

Q: Which “folding stability dG” value does the source give for TKAQVIEAFNVFDRDGNGYVTVDYLRKVLNELGDMMPADEIEEMIYEADPQNSGYVQYETFVGMLFL here?
A: The value was 2.74 kcal/mol.

Q: For TKAQVIEAFKVADRDGNGYVTVDYLRKVLNELGDMMPADEIEEMIYEADPQNSGYVQYETFVGMLFL, which “folding stability dG” value is on record?
A: Its value is 3.36 kcal/mol.

Q: Which “folding stability dG” value does the source give for TKAQVIEAFKVDDRDGNGYVTVDYLRKVLNELGDMMPADEIEEMIYEADPQNSGYVQYETFVGMLFL here?
A: The value was 2.69 kcal/mol.

Q: With TKAQVIEAFKVCDRDGNGYVTVDYLRKVLNELGDMMPADEIEEMIYEADPQNSGYVQYETFVGMLFL as the variant, how does the “folding stability dG” value read?
A: The value was 3.15 kcal/mol.
